Measurements reported in article PMC12086512 (Protein Science : A Publication of the Protein Society, 2025).

T1: p67C^1 (p67 residues 572-612) (Theileria parva, UniProt Q4MZ78)
T1 chain: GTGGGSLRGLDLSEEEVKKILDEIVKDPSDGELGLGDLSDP

B1: Fab B11 (Fab, V domains shown)
VH: EVQLVESGGGLVQPGGSLRLSCAASGFNISSSSIHWVRQAPGKGLEWVASISPYYSSTSYADSVKGRFTISADTSKNTAYLQMNSLRAEDTAVYYCARGPGYAMDYWGQGTLVTVSS
VL: DIQMTQSPSSLSASVGDRVTITCRASQSVSSAVAWYQQKPGKAPKLLIYSASSLYSGVPSRFSGSRSGTDFTLTISSLQPEDFATYYCQQYYYAPITFGQGTKVEIK
B2: Fab B11 displayed on phage (Fab, V domains shown)
VH: B1 VH
VL: B1 VL

Experiments:
[1] = biological target: full-length p67 of Theileria parva with a C-terminal His-tag (Theileria parva, strain not told, UniProt Q4MZ78); assay: BLI
[2] = biological target: His-p67C (p67 residues 572-651) (Theileria parva, strain not told, UniProt Q4MZ78); assay: ELISA
[3] = biological target: T1, p67C^1 (p67 residues 572-612); assay: ELISA
bovine serum albumin = bovine serum albumin (Bos taurus, UniProt P02769); assay: ELISA
ubiquitin = ubiquitin (Homo sapiens (assumed; species not …, UniProt P0CG48); assay: ELISA
the fusion tag (GST) = the fusion tag (GST) (Schistosoma japonicum (assumed, usual …, UniProt P08515 = GST)); assay: ELISA

Chain of bovine serum albumin (P02769 25-607): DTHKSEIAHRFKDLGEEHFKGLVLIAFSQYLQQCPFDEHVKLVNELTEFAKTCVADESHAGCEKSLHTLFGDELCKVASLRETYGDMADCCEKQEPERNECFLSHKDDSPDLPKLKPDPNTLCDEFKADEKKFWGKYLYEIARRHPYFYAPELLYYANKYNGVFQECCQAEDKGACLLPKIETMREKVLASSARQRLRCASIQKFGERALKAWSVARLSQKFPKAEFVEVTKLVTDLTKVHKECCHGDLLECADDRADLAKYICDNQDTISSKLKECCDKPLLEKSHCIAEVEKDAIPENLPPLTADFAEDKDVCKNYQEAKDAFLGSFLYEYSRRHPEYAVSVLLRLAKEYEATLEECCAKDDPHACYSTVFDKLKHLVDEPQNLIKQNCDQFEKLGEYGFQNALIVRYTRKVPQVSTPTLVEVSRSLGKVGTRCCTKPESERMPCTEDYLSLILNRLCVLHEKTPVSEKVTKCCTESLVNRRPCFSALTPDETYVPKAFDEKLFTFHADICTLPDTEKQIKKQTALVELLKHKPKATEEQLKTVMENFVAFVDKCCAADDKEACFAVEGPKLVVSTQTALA

Row | Binder | Kd [1] [nM] | EC50 [2] [nM] | binding result [3] | binding result (bovine serum albumin) | binding result (ubiquitin) | binding result (the fusion tag (GST))
1 | B1 | 79 | 25 | binds | no binding | no binding | –
2 | B2 | – | – | – | – | – | no binding
